Substrate in this data set: OC[C@H]1O[C@@H]2O[C@H]3[C@H](O)[C@@H](O)[C@@H](O[C@H]4[C@H](O)[C@@H](O)[C@@H](O[C@H]5[C@H](O)[C@@H](O)[C@@H](O[C@H]6[C@H](O)[C@@H](O)[C@@H](O[C@H]7[C@H](O)[C@@H](O)[C@@H](O[C@H]8[C@H](O)[C@@H](O)[C@@H](O[C@H]1[C@H](O)[C@H]2O)O[C@@H]8CO)O[C@@H]7CO)O[C@@H]6CO)O[C@@H]5CO)O[C@@H]4CO)O[C@@H]3CO
Put plainly: purified protein. Type of data set: biochemical, Thermococcus kodakarensis. As to conditions: 20 mM Tris-HCl pH 7.5, 65°C, 1-10 mg/mL β-CD.

B1: CDase-Tk (Tk1770) (Thermococcus kodakarensis KOD1) (protein)
chain: MYKVFGFEENFIHGRVARVEFSLPDAGRWDYAYLLGNFNAFNEGSFRMKHEDKRWIIEIKLPEGLWRYAFSAGGEFLLDPENPEKELYRRPSYKFEREVSLAKIAGNDMVFHRPALLYLYSFGDRTHVLLRSKKGKVDAAYLVTDDTHVKMRKKADGEVFEYYEAVLQETEKLRYSFEVFLKEGKSLTLGPFEAAPFRLDAPSWILDRVFYQIMPDRFAKGRDHEPPFLSWEYYGGDLWGIVEKIDHLEELGVNALYLTPIFESMTYHGYDITDYLRVAERLGGEEAFRELVKALKSRDIKLVLDGVFHHTSFFHPFFRDVVERGEESEYADFYRVKGFPVVSEEFIRVLKSDLPPMEKYQTLKKMGWNYESFFSVWVMPRLNHDSPKVREFVARVMNYWLEKGADGWRLDVAHGVPPGFWREVREGLPDDAYLFGEVMDDPRLYLFGVFHGVMNYPLYDLLLRFFAFGEIGATEFINGIELLSAHLGPAEYFTYNFLDNHDTERFIDLAGKERYLCALTFLMTYKGIPAIFYGDEIGLRGSGEGMSAGRTPMSWDEEKWDFQILRQTMKLIELRRSLKSLQVGSFRVIGAGEKWFVYERKAGSERVLVGINCSWNDVETPVPSNGSNEQIKIPAFSSIIRVKDSMNVHIGSDLQE
notes: pET28a EcoRI/XhoI, E. coli BL21(DE3), DEAE purified
For the protein B1, the Km is 3.13 ± 0.47 mg/mL and the kcat is 34.6 s⁻¹.
